Assay [1] concerns the target heat denatured type II collagen (HDC).
Assay [2] addresses native helical type II collagen.
In assay [3] the target is monoclonal antibody COL2-3/4m. The experiment in a line: inhibition ELISA with COL2-3/4m, HDC on the plate; sample incubated in Tris/CaCl2 without collagenase. (An ELISA detects its analyte on a solid surface through an enzyme-linked reagent.)

Non-standard residues stand in square brackets, D forms with d. No end group written: not given here. Hyp = O=C(O)[C@@H]1C[C@@H](O)CN1

In turn, “chromatographically purified collagenase form III from Clostridium histolyticum (enzyme)” returned a [α1(II)-CB11B] by immunoassay (µg/ml) after treatment in assay [1] of 0.84 µg/mL.

As for α-chymotrypsin (enzyme), the [CB11B] BY INHIBITION ASSAY (µg/ml) of NC + 500 µg/ml CHYMOTRYPSIN in assay [2] was 0 µg/mL.

B1: synthetic peptide CB11B (peptide)
peptide: CGKVGPSGA[Hyp]GEDGR[Hyp]GP[Hyp]GPQY
B1 came in with a [α1(II)-CB11B] by immunoassay in assay [3] of 4.44 µg/mL.

The record behind these values is US6132976.
